In patent US20120135916A1 (SIEMENS HEALTHCARE DIAGNOSTICS, published 2012):
Bridge positions count the residues as written; N and C are the ends. Ends that are not written are not given here. I, II: the chains in the order shown.

B1: R1 CTF32 R2 CTF32 heterodimer (peptide)
peptide 1: VVAAAFVHFYGVSNLQEFRYGLEGGCTDDTLL
peptide 2: VVAGAFVHFHGVSNLQEFRFMIGGGCSEEDAL
modifications: disulfide I:26-II:26
B2: R1 CTF25 R2 CTF25 heterodimer (peptide)
peptide 1: HFYGVSNLQEFRYGLEGGCTDDTLL
peptide 2: HFHGVSNLQEFRFMIGGGCSEEDAL
modifications: disulfide I:19-II:19

Biological target: insulin degradation enzyme (IDE) (UniProt P14735 42-1019, limits assumed)
Test: cell-based or functional assay

Row | Binder | IDE Inhibition (90% inhibition at) [µg/mL]
1 | VVAAAFVHFYGVSNLQEFRYGLEGGCTDDTLL (also: homodimer: inter-chain disulfide between Cys26 of both mer units) [R1 CTF32 R1 CTF32 homodimer] | 22.5
2 | VVAAAFVHFYGVSNLQEFRYGLEGGCTDDTLL [R1 CTF32] | 50
3 | HFHGVSNLQEFRFMIGGGCSEEDAL [R2 CTF25] | 9
4 | HFYGVSNLQEFRYGLEGGCTDDTLL [R1 CTF25] | 12.4
5 | VVAGAFVHFHGVSNLQEFRFMIGGGCSEEDAL [R2 CTF32] | 40
6 | B1 | 1.2
7 | VVAGAFVHFHGVSNLQEFRFMIGGGCSEEDAL (also: homodimer: inter-chain disulfide between Cys26 of both mer units) [R2 CTF32 R2 CTF32 homodimer] | 19
8 | B2 | 0.6
